This experiment addresses HA of A/CA/04/09 (H1N1) virus (Influenza A virus A/CA/04/09 (H1N1)). As to the kind of experiment: cell-based or functional assay.

Data on one substance can be found in patent publication US20160052997A1.

CT-P27: the EC50, microneutralization test was determined as 0.62 µg/mL.
